Experimental data as given in IntAct's records for PubMed 29892012.

B1: Histone-lysine N-methyltransferase SMYD1 (Homo sapiens), Q8NB12 (parent)
chain: MTIGRMENVEVFTAEGKGRGLKATKEFWAADIIFAERAYSAVVFDSLVNFVCHTCFKRQEKLHRCGQCKFAHYCDRTCQKDAWLNHKNECSAIKRYGKVPNENIRLAARIMWRVEREGTGLTEGCLVSVDDLQNHVEHFGEEEQKDLRVDVDTFLQYWPPQSQQFSMQYISHIFGVINCNGFTLSDQRGLQAVGVGIFPNLGLVNHDCWPNCTVIFNNGNHEAVKSMFHTQMRIELRALGKISEGEELTVSYIDFLNVSEERKRQLKKQYYFDCTCEHCQKKLKDDLFLGVKDNPKPSQEVVKEMIQFSKDTLEKIDKARSEGLYHEVVKLCRECLEKQEPVFADTNIYMLRMLSIVSEVLSYLQAFEEASFYARRMVDGYMKLYHPNNAQLGMAVMRAGLTNWHAGNIEVGHGMICKAYAILLVTHGPSHPITKDLEAMRVQTEMELRMFRQNEFMYYKMREAALNNQPMQVMAEPSNEPSPALFHKKQ
B2: Muscleblind-like protein 1 (Homo sapiens), Q9NR56 (parent)
chain: MAVSVTPIRDTKWLTLEVCREFQRGTCSRPDTECKFAHPSKSCQVENGRVIACFDSLKGRCSRENCKYLHPPPHLKTQLEINGRNNLIQQKNMAMLAQQMQLANAMMPGAPLQPVPMFSVAPSLATNASAAAFNPYLGPVSPSLVPAEILPTAPMLVTGNPGVPVPAAAAAAAQKLMRTDRLEVCREYQRGNCNRGENDCRFAHPADSTMIDTNDNTVTVCMDYIKGRCSREKCKYFHPPAHLQAKIKAAQYQVNQAAAAQAAATAAAMTQSAVKSLKRPLEATFDLGIPQAVLPPLPKRPALEKTNGATAVFNTGIFQYQQALANMQLQQHTAFLPPVPMVHGATPATVSAATTSATSVPFAATATANQIPIISAEHLTSHKYVTQM
partner: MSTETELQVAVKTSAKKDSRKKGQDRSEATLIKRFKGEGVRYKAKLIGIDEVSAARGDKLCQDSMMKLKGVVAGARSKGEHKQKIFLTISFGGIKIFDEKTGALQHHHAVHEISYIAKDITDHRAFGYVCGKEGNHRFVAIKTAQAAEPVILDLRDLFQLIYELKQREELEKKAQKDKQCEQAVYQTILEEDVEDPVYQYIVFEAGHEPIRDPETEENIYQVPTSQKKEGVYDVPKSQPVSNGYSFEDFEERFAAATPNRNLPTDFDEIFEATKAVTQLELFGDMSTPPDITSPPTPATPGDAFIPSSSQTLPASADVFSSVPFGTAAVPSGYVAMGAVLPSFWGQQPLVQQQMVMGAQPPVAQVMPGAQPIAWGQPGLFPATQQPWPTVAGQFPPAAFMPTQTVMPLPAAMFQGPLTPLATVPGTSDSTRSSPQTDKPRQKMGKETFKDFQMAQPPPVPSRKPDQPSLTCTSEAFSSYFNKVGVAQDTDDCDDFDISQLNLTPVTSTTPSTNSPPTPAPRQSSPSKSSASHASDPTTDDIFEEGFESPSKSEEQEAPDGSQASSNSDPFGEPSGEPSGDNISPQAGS
B3: MOB kinase activator 3C (Homo sapiens), Q70IA8 (parent)
chain: MALCLKQVFAKDKTFRPRKRFEPGTQRFELYKKAQASLKSGLDLRSVVRLPPGENIDDWIAVHVVDFFNRINLIYGTMAERCSETSCPVMAGGPRYEYRWQDERQYRRPAKLSAPRYMALLMDWIEGLINDEEVFPTRVGVPFPKNFQQVCTKILTRLFRVFVHVYIHHFDSILSMGAEAHVNTCYKHFYYFIREFSLVDQRELEPLREMTERICH
partner: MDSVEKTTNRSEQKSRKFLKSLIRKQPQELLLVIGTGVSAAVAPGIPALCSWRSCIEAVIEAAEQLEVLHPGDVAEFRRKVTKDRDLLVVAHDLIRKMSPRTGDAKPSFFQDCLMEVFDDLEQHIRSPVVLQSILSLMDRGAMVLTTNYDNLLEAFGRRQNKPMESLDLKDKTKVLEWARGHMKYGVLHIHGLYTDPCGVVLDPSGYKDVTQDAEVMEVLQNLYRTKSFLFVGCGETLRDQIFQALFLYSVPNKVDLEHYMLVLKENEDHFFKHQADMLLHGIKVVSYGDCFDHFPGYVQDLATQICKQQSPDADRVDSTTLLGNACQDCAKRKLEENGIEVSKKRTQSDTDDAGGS
B4: E3 ubiquitin-protein ligase DZIP3 (Homo sapiens), Q86Y13 (parent)
chain: MDSLPDEFFVRHPAVEDQRKEETENKLEKSSGQLNKQENDIPTDLVPVNLLLEVKKLLNAINTLPKGVVPHIKKFLQEDFSFQTMQREVAANSQNGEEIVPALTLRFLITQLEAALRNIQAGNYTAHQINIGYYLTLLFLYGVALTERGKKEDYTEAENKFLVMKMMIQENEICENFMSLVYFGRGLLRCAQKRYNGGLLEFHKSLQEIGDKNDHWFDIDPTEDEDLPTTFKDLLNNFIKTTESNIMKQTICSYLDCERSCEADILKNTSYKGFFQLMCSKSCCVYFHKICWKKFKNLKYPGENDQSFSGKKCLKEGCTGDMVRMLQCDVPGIVKILFEVVRKDEYITIENLGASYRKLISLKITDTDIRPKISLKFNTKDEMPIFKLDYNYFYHLLHIIIISGTDIVRQIFDEAMPPPLLKKELLIHKNVLESYYNHLWTNHPLGGSWHLLYPPNKELPQSKQFDLCLLLALIKHLNVFPAPKKGWNMEPPSSDISKSADILRLCKYRDILLSEILMNGLTESQFNSIWKKVSDILLRLGMMQEDIDKVKENPIENISLDYHQLSVYLGIPVPEIIQRMLSCYQQGIALQSITGSQRIEIEELQNEEEELSPPLMEYNINVKSHPEIQFAEINKDGTSIPSESSTESLKDLQEVKSKQRKKKKTKNKKNKDSKEDQVPYVVEKEEQLRKEQANPHSVSRLIKDDASDVQEDSAMEDKFYSLDELHILDMIEQGSAGKVTTDYGETEKERLARQRQLYKLHYQCEDFKRQLRTVTFRWQENQMQIKKKDKIIASLNQQVAFGINKVSKLQRQIHAKDNEIKNLKEQLSMKRSQWEMEKHNLESTMKTYVSKLNAETSRALTAEVYFLQCRRDFGLLHLEQTEKECLNQLARVTHMAASNLESLQLKAAVDSWNAIVADVRNKIAFLRTQYNEQINKVKQGFALSTLPPVQLPPPPPSPEILMQQFLGRPLVKESFFRPILTVPQMPAVCPGVVSATGQPRAPLMTGIAWALPAPVGDAVPPSAGLRSDPSIMNWERITDRLKTAFPQQTRKELTDFLRKLKDAYGKSLSELTFDEIVCKISQFIDPKKSQSQGKSVSNVNCVSPSHSPSQPDAAQPPKPAWRPLTSQGPATWEGASNPDEEEEEEEPCVICHENLSPENLSVLPCAHKFHAQCIRPWLMQQGTCPTCRLHVLLPEEFPGHPSRQLPKI
partner: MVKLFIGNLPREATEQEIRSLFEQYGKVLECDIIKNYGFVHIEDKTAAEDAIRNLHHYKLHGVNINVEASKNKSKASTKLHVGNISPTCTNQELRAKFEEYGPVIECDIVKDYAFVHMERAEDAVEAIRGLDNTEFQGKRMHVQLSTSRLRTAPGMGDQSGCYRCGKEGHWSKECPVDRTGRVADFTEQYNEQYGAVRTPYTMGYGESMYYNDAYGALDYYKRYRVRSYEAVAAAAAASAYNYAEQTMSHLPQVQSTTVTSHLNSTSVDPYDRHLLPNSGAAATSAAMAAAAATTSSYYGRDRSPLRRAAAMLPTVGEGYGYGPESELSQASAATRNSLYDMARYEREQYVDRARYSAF
B5: Histone-lysine N-methyltransferase SMYD1 (Homo sapiens), Q8NB12 (parent)
chain: B1 chain
partner: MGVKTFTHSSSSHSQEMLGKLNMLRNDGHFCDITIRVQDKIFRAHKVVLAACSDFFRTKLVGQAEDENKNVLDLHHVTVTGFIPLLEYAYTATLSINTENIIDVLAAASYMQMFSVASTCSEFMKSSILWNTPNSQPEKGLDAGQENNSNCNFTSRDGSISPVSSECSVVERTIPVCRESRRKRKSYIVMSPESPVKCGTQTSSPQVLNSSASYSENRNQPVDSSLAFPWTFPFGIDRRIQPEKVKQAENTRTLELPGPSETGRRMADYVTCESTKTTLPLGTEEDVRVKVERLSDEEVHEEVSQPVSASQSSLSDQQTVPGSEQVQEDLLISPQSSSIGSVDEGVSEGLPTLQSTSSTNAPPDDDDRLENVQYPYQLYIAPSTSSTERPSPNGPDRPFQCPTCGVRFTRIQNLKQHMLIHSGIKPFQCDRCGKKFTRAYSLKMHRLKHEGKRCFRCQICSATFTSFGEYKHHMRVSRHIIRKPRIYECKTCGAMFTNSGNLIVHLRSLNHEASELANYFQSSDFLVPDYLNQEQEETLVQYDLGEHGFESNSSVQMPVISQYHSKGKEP
B6: Tumor suppressor candidate 2 (Homo sapiens), O75896 (parent)
chain: MGASGSKARGLWPFASAAGGGGSEAAGAEQALVRPRGRAVPPFVFTRRGSMFYDEDGDLAHEFYEETIVTKNGQKRAKLRRVHKNLIPQGIVKLDHPRIHVDFPVILYEV
B7: Angio-associated migratory cell protein (Homo sapiens), Q13685 (parent)
chain: MESESESGAAADTPPLETLSFHGDEEIIEVVELDPGPPDPDDLAQEMEDVDFEEEEEEEGNEEGWVLEPQEGVVGSMEGPDDSEVTFALHSASVFCVSLDPKTNTLAVTGGEDDKAFVWRLSDGELLFECAGHKDSVTCAGFSHDSTLVATGDMSGLLKVWQVDTKEEVWSFEAGDLEWMEWHPRAPVLLAGTADGNTWMWKVPNGDCKTFQGPNCPATCGRVLPDGKRAVVGYEDGTIRIWDLKQGSPIHVLKGTEGHQGPLTCVAANQDGSLILTGSVDCQAKLVSATTGKVVGVFRPETVASQPSLGEGEESESNSVESLGFCSVMPLAAVGYLDGTLAIYDLATQTLRHQCQHQSGIVQLLWEAGTAVVYTCSLDGIVRLWDARTGRLLTDYRGHTAEILDFALSKDASLVVTTSGDHKAKVFCVQRPDR
partner: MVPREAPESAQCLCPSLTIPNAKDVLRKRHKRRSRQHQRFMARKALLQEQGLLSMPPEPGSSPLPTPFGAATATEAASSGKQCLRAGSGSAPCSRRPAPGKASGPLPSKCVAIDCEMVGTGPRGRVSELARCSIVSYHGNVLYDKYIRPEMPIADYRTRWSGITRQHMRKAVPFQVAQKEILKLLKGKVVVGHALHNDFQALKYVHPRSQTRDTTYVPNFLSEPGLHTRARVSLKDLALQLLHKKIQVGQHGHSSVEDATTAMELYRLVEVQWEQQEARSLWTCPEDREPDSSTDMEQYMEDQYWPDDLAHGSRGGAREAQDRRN
B8: E3 ubiquitin-protein ligase DZIP3 (Homo sapiens), Q86Y13 (parent)
chain: B4 chain
B9: Abl interactor 2 (Homo sapiens), Q9NYB9 (parent)
chain: MAELQMLLEEEIPGGRRALFDSYTNLERVADYCENNYIQSADKQRALEETKAYTTQSLASVAYLINTLANNVLQMLDIQASQLRRMESSINHISQTVDIHKEKVARREIGILTTNKNTSRTHKIIAPANLERPVRYIRKPIDYTILDDIGHGVKWLLRFKVSTQNMKMGGLPRTTPPTQKPPSPPMSGKGTLGRHSPYRTLEPVRPPVVPNDYVPSPTRNMAPSQQSPVRTASVNQRNRTYSSSGSSGGSHPSSRSSSRENSGSGSVGVPIAVPTPSPPSVFPAPAGSAGTPPLPATSASAPAPLVPATVPSSTAPNAAAGGAPNLADGFTSPTPPVVSSTPPTGHPVQFYSMNRPASRHTPPTIGGSLPYRRPPSITSQTSLQNQMNGGPFYSQNPVSDTPPPPPPVEEPVFDESPPPPPPPEDYEEEEAAVVEYSDPYAEEDPPWAPRSYLEKVVAIYDYTKDKEDELSFQEGAIIYVIKKNDDGWYEGVMNGVTGLFPGNYVESIMHYSE
partner: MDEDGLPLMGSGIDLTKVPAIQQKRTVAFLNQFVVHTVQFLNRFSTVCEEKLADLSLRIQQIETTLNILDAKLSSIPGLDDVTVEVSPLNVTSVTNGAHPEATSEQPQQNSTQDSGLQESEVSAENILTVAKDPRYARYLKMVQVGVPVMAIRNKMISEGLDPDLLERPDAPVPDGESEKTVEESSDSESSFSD

Variants of: B1
Conditions: with bhe40_human BHLHE40, O14503
Chain of bhe40_human BHLHE40, O14503 (O14503 whole entry): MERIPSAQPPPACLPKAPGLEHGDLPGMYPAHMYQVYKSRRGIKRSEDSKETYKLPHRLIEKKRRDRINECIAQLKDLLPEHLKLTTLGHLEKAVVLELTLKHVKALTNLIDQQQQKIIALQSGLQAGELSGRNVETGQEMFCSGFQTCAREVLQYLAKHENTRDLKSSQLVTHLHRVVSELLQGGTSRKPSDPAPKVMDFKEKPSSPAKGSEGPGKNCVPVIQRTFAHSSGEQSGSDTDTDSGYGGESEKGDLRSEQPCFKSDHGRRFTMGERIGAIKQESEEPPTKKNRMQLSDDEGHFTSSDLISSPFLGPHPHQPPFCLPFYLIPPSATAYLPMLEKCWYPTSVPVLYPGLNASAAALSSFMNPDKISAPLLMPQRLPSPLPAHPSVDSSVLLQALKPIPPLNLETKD

Variant	effect of a mutation on the interaction
Q443R	with no effect

Variants of: B2
Conditions: with dab1_human DAB1, O75553

Variant	effect of a mutation on the interaction
V45A	with no effect

Variants of: B3
Conditions: with FAM118A

Variant	effect of a mutation on the interaction
I173F	disrupting interaction strength

Variants of: B4
Conditions: with rbm4b_human RBM4B

Variant	effect of a mutation on the interaction
M1032R	disrupting interaction strength

Variants of: B5
Conditions: with zbt44_human ZBTB44, Q8NCP5

Variant	effect of a mutation on the interaction
Q443R	disrupting interaction strength

Variants of: B6
Conditions: with rbpms_human RBPMS

Variant	effect of a mutation on the interaction
R76Q	with no effect

Variants of: B6
Conditions: with mdfi_human MDFI

Variant	effect of a mutation on the interaction
R76Q	disrupting interaction strength

Variants of: B7
Conditions: with aen_human AEN

Variant	effect of a mutation on the interaction
I343F	with no effect

Variants of: B8
Conditions: with ub2e2_human UBE2E2, Q96LR5
Chain of ub2e2_human UBE2E2, Q96LR5 (Q96LR5 whole entry): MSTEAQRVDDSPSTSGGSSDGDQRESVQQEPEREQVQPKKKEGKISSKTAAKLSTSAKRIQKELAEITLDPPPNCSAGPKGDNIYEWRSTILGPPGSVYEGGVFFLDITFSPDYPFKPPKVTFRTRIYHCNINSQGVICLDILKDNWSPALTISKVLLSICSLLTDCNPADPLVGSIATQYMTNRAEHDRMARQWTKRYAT

Variant	effect of a mutation on the interaction
M1032R	disrupting interaction strength

Variants of: B8
Conditions: with znf24_human ZNF24, P17028
Chain of znf24_human ZNF24, P17028 (P17028 whole entry): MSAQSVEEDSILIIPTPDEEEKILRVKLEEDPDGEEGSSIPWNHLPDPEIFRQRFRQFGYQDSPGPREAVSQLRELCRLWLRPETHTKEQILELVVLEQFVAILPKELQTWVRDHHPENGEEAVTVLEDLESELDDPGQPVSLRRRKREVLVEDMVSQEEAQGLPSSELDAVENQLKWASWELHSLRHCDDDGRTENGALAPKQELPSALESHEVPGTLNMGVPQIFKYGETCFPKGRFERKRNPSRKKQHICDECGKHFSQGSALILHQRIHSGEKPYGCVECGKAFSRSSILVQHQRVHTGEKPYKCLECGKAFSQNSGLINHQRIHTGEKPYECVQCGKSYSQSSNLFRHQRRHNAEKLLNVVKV

Variant	effect of a mutation on the interaction
M1032R	disrupting interaction strength

Variants of: B8
Conditions: with hnrl1_human HNRNPUL1, Q9BUJ2
Chain of hnrl1_human HNRNPUL1, Q9BUJ2 (Q9BUJ2 whole entry): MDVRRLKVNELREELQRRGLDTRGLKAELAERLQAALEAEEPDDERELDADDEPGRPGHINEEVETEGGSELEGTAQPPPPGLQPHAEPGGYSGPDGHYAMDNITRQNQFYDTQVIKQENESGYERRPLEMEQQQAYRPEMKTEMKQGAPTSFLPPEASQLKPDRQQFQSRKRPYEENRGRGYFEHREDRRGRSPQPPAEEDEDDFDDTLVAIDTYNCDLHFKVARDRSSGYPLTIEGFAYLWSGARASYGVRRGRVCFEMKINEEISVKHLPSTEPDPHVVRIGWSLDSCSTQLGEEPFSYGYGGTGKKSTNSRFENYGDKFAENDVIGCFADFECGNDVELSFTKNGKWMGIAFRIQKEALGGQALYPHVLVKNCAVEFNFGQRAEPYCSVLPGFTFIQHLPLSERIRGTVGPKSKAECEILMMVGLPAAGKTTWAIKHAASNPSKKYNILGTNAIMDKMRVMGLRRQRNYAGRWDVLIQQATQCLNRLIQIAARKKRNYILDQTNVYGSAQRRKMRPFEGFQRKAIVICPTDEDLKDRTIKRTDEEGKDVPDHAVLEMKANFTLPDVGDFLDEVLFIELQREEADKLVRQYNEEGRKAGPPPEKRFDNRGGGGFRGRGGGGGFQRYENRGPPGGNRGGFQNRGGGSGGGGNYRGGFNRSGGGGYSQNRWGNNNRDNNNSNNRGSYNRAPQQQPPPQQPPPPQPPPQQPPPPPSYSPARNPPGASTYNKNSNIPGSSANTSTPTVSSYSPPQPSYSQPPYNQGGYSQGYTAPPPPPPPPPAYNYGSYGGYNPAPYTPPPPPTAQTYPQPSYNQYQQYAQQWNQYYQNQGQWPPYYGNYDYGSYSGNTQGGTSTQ

Variant	effect of a mutation on the interaction
M1032R	with no effect

Variants of: B8
Conditions: with zch10_human ZCCHC10, Q8TBK6
Chain of zch10_human ZCCHC10, Q8TBK6 (Q8TBK6 whole entry): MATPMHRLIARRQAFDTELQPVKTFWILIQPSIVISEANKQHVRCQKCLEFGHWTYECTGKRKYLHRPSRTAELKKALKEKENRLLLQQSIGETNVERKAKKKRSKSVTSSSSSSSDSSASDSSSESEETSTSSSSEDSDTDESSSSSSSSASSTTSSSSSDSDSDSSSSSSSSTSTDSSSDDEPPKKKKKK

Variant	effect of a mutation on the interaction
M1032R	disrupting interaction strength

Variants of: B9
Conditions: with wasc3_human WASHC3, Q9Y3C0

Variant	effect of a mutation on the interaction
R373C	with no effect
